Molecular target: S2 fragment of the S protein (SARS-CoV-2)
Assay: SEC

Question: “S2 fragment of the S protein (domain or fragment)” was tested. Which stoichiometry N did it give?
Answer: 3

— PMC8139424
